B1: FEM1B (parent)
chain: TLAALLLNRSESDIRYLLGYVSQQ

Variants of: B1
Experiment: protein stability index of a GFP-peptide fusion (GPS, HEK-293T) (PSI 1-6); higher = more stable
Conditions: c terminus: a fixed tail appended
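Note: lentivirally expressed fusions sorted by FACS into six bins by GFP to DsRed ratio, PSI derived from sequencing read proportions per bin multiplied by bin number.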

Protein stability index of substitutions, site by site:
L17: M 3.53, Q 3.77, R 2.04, D 1.65, E 3.04, H 1.26, W 2.67, V 2.98, I 1.99, N 2.24, P 1.51, C 3.59, K 1.1, F 2.82, S 1.92, G 2.01
Y20: H 2.13, D 3.08, W 2.52, P 2.58, E 4.31, N 4.26, G 2.25, T 1.97, I 3.01, F 1.29, V 3.32, L 2.66, A 2.91, K 2.46
N8: W 4.75, D 3.63, H 2.92, S 2.67, A 2.48, K 4.32, M 4.03, G 2.04
I14: K 1.96, E 2.85, A 2.58, M 3.25, R 3, C 2.37, N 1.74, S 3, H 3.1, G 3.06, Q 2.35, V 2.9, F 2.7, Y 3.54, D 1.53, P 1.79, W 1.77
G19: Y 3.17, R 3.51, P 2.76, C 3.34, S 2.71, E 2.37, W 1.26, H 2.78, K 3.24, M 2.35, V 3.02, I 3.01, T 2.4, A 2.38, Q 2.11, D 2.62
V21: I 2.41, Q 1.53, T 1.82, Y 2.32, K 1.97, D 2.86, R 1.3, E 2.03, P 2.42, W 3.68, L 3.44, N 3.55, F 2.23
R9: L 3.24, K 1.96, P 1.92, Y 2.52, F 2.9, G 3.4, S 2.7, D 2.9, I 3.29, V 2.67, C 2.13, N 2.57, T 2.94
T1: D 1.66, M 3.36, A 2.5, P 2.1, K 2.89, L 1.72, S 2.98, E 2.21, W 1.93, Y 3.91
Q23: N 1.93, P 1.36, V 2.77, I 2.75, K 2.87, G 2.58, D 2.67, A 2.35, S 2.92, M 3.68, Y 2.1, R 2.6, F 2.3, E 3.21, T 3.07, L 1.09, H 2.27
A4: Q 2.05, W 2.28, F 3.05, Y 3.38, T 2.35, S 3.29, V 2.42, P 2.09, E 2.94, R 3.48, G 1.68, H 2.97, K 2.59, D 2.37, M 1.5
L5: D 2.45, N 1.76, P 1.79, S 2.6, E 2.14, H 2.62, C 2.4, Y 3.74, M 3.24, Q 3.07, V 3.12, G 1.12, A 2.03, K 1.44, R 3.37
Y16: K 2.83, C 2.91, D 2.38, A 4.57, H 1.88, F 3.75, E 2.06, L 2.01, M 2.45, I 1.57, P 2.95, N 2.17, T 3.16, W 4.55, V 2.24, Q 3.05
R15: N 2.55, P 2.03, V 1.75, T 3.37, F 3.37, K 2.3, C 2.14, E 2.72, D 2.12, H 2.4, Y 3.31, I 2.81
E11: F 3.19, M 3.08, G 3.03, C 3.04, D 2.49, I 4.17, N 3.2, H 3.15, Q 1.99, A 2.44, K 2.83, V 2.96, L 3.34, P 2.08, Y 3.35
D13: Q 2.04, I 3.07, W 4.04, Y 3.38, K 2.79, R 2.72, N 2.77, E 3.26, M 3.99, C 3.94, F 1.76, S 2.62, T 2.88, G 2.81, L 3.62
L18: N 1.73, V 1.67, A 1.98, C 2.45, W 3.01, Q 3.66, Y 3.1, I 2.8, P 2.69, R 3.15, D 1.64, F 2.34
Q24: C 3.34, H 2.75, M 1.61, G 2.68, A 2.5, D 2, W 2.52, F 2.26, T 3.19, Y 2.22
L6: H 1.85, S 1.82, F 2.65, C 1.21, I 2.88, A 2.12, M 2.56, N 1.8, G 1.97, V 2.22, E 1.7, R 1.76, T 1.76
S22: F 2.73, R 2.37, A 3.04, D 2.48, H 2.55, I 2.42, W 3.27, C 2.87, L 3.22, N 1.56, G 2.98, T 2.5, P 2.53
L7: D 1.97, N 1.95, A 2.03, H 1.7, F 2.56, M 2.58, S 1.31, Y 1.28, G 1.79, C 2.03, K 2.38, R 1.78, E 1.42, P 1.3, Q 1.79
S12: I 3.15, V 1.73, A 2.19, M 2.33, L 2.36, G 3.69, P 3.27, D 2.71, Y 2.93, K 3.14, H 2.48, E 3.18, R 2.36, T 2.18, W 3.62, N 2.79
L2: T 1.77, R 1.84, F 2.56, G 2.11, D 2.1, Q 2.44, N 1.89, H 1.43, E 2.01, S 1.57, A 1.7, C 3.06, Y 2.2, V 2.68, K 1.64
A3: H 2.12, T 2.18, G 2.15, L 2.64, Q 2.31, K 1.18, E 2.92, I 2.65, F 3.58, M 2.35, N 1.7, C 2.17, P 2.08, R 2.25
S10: Q 4.48, M 1.87, P 3.81, I 3.57, A 3.37, K 2.28, V 1.87, F 3.1, E 3.2, W 3.07, Y 2.41, L 3.05, G 1.53, C 2.4
